The text below walks through data of US20030175712A1 (published 2003).

Where a chain is given by its changes, count along the chain named.

The target of assay [1] is T1, Cdc24p (1-160 aa) fused to GAL4 DBD (S. cerevisiae, UniProt P04386 1-147; P11433 1-160).
T1 construct: also called amino-terminal fragment consisting of the first 160 amino acid residues
Put plainly: yeast two-hybrid, Cdc24p fragments fused to DBD. The procedure:
(§1) Plasmids were transformed into HF7c. For determination of STE18 requirement, PCR-based geene disruption was carried out in PJ69-4A (MATa, trp1-901, leu2-3,112, ura3-52, his3-200, gal4D, gal80D, GAL2-ADE2, LYS2::GAL1-HIS3, met2::GAL7-lacZ)²⁹, replacing the entire STE18 ORF with K. Lactis URA3³⁰. For all two-hybrid experiments, equal amounts of transfonnants were spotted on SC-leu-trp and SC-leu-trp-his plates, identical results were obtained with at least four transformants, and for Dste18 two independent deletion strains. All strains for two-hybrid analyses expressed similar amounts of AD- and DBD- fusion proteins of the expected sizes, as determined by SDS-PAGE and immuno-blotting.
(§2) cdc24-m mutants are defective in mating and Ste4p (Gβ) binding. a, Location of Cdc24p mating mutations. Mating patches show diploids from mating with MATa WT tester. Ste4 2-H patch growth on -leu-trp-his indicates an interaction of Cdc24p (1-288 aa) with Ste4p. Similar results were obtained using a LacZ reporter in strain Y187 (relative Miller Units 100 for Cdc24/Ste4 and 3 for Cdc24-m1/Ste4). b, Two hybrid interactions of Cdc24p. Fror interactions with Ste4p, a fragment of Cdc24p (1-288 aa) was used, however, fill length Cdc24p also interats with Ste4p. c, Region of Cdc24p necessary for Ste4p interaction. […]

The target in assay [2] is T2, Cdc24-m1p (1-288 aa), GAL4 two-hybrid fusion (S. cerevisiae, UniProt P11433 1-288).
T2 construct: also called cdc24-m1 (1-288)
T2 sequence: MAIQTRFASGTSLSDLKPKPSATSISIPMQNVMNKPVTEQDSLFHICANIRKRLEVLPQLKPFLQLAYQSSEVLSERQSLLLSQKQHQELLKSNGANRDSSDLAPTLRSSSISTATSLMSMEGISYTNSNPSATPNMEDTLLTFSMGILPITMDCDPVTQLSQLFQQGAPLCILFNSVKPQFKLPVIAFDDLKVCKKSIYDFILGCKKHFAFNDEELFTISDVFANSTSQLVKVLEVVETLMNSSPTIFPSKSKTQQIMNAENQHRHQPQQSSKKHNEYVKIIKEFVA
As to the kind of experiment: yeast two-hybrid, growth on -leu-trp-his. The method, then:
as §1, §2

Assay [3] addresses T3, Cdc24-m3p (1-288 aa), GAL4 two-hybrid fusion (S. cerevisiae, UniProt P11433 1-288).
T3 sequence: T2 sequence with F189P
As to the kind of experiment: yeast two-hybrid, growth on -leu-trp-his. The procedure: as §1, §2

A further assay deals with T4, GST (UniProt P08515 1-218 = GST).
T4 construct: Control; also called GST alone; glutathione-S-transferase
T4 sequence (P08515 whole entry): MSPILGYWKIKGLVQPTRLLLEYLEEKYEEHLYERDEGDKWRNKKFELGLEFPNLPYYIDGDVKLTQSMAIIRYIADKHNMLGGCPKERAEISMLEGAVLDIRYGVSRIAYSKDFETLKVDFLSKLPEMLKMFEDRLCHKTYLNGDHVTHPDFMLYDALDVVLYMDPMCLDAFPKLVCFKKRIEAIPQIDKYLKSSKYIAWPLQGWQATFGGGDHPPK
Put plainly: GSH-agarose pull-down from mixed bacterial extracts, immunoblot. The procedure: (§3) A fragment of CDC24 (1-472 aa) in pGEX-2T (Pharmacia) and His₆Ste4p (pTrcSte4) were expressed in E. coli. Cells were resuspended in buffer A (PBS, 0.1% TX-100, Phenyl Methyl Sulfonyl Fluoride (PMSF), leupeptin, chymostatin, pepstatin, aprotinin) and lysed by snap freezing in liquid nitrogen followed by sonicatioin. Insoluble material was removed by centrifuigation (10,000 g). Mixed supernatants (denoted cell extracts) containing His₆Ste4 and GSTCdc24 fusions were incubated with GSH-agarose (Sigma Chemical Co.) at 4° for 1 hr. Resin was washed 3 times with buffer A. Resin samples (referred to as eluates) and extracts were analyzed by SDS-PAGE, immuno-blottinig probed with Omni-probe anti-sera (Santa Cruz), and visualised with enhanced chemiluhniuescence (Amershan).
as §2
For orientation: Immunoblotting shows a protein as a band on a membrane.

The next assay concerns the target T5, GSTCdc24p (1-127 aa) (S. cerevisiae, UniProt P11433 1-127).
T5 construct: not shown: glutathione-S-transferase as encoded by pGEX-2T (Pharmacia)
T5 sequence (looked up): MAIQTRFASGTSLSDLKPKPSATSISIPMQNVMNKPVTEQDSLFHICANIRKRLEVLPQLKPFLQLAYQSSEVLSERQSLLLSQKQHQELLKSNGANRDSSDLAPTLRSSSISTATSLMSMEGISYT
Described as above. The method, then:
as §3, §2

B1: Ste4p, GAL4 two-hybrid fusion (other, not shown: small tags and cut ends)
chain: MAHQMDSITYSNNVTQQYIQPQSLQDISAVEEEIQNKIEAARQESKQLHAQINKAKHKIQDASLFQMANKVTSLTKNKINLKPNIVLKGHNNKISDFRWSRDSKRILSASQDGFMLIWDSASGLKQNAIPLDSQWVLSCAISPSSTLVASAGLNNNCTIYRVSKENRVAQNVASIFKGHTCYISDIEFTDNAHILTASGDMTCALWDIPKAKRVREYSDHLGDVLALAIPEEPNLENSSNTFASCGSDGYTYIWDSRSPSAVQSFYVNDSDINALRFFKDGMSIVAGSDNGAINMYDLRSDCSIATFSLFRGYEERTPTPTYMAANMEYNTAQSPQTLKSTSSSYLDNQGVVSLDFSASGRLMYSCYTDIGCVVWDVLKGEIVGKLEGHGGRVTGVRSSPDGLAVCTGSWDSTMKIWSPGYQ
notes: also called Gβ
For B1, the binding result in assay [1], in assay [2] and in assay [3] was “no binding” throughout.

B2: His6Ste4p (other)
chain: B1 chain
notes: Expressed in E. coli; migrates as a doublet due to proteolysis; also called Hexahistidine-tagged Ste4p; pTrcSte4; not shown: hexahistidine tag with the leader of the pTrc vector
Turning to B2, the binding result with GST and with GSTCdc24p (1-127 aa) was “no binding” each time.
